The test concerns the target RBD–GFP11 (Rho-binding domain of Rhotekin fused to GFP β-strand 11) (UniProt Q8C6B2). The test is described as follows: split reporter (BiFC, NanoBiT); tripartite split-GFP; HEK_GFP1-9 cells stably expressing GFP1-9, transiently co-transfected with GFP10 and GFP11 fusions (1:1); fixed, double immunostaining with anti-GFP10 and anti-GFP11; flow cytometry, mean GFP fluorescence in the GFP10+ GFP11+ gate. On the technique in general: In flow cytometry, cells or beads pass a laser one at a time.

From paper PMC5818064 come the findings set out here.

UniProt Q8C6B2, sequence (Q8C6B2 whole entry, the tested form may be a part): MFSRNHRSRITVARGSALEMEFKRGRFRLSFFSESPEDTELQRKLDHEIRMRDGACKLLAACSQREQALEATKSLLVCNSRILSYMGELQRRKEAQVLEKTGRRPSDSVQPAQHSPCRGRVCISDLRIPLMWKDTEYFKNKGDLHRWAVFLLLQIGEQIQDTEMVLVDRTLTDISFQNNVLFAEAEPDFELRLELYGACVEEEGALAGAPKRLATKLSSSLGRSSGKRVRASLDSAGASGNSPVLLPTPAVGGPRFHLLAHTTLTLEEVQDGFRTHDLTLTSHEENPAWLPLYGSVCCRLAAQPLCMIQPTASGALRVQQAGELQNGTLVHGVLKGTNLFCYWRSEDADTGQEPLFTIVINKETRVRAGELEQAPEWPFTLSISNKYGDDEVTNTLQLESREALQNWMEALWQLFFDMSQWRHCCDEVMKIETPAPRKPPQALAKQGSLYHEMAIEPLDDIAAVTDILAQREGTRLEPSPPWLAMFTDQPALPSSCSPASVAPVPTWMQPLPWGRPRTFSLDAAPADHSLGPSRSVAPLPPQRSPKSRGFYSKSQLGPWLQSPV

Regarding “GFP10–RhoB L63 (constitutively active RhoB mutant fused to GFP β-strand 10) (from UniProt P62745 1-196) (natural protein)”, the fold change of mean GFP fluorescence against the dominant-negative mutant is 5 fold.
With “GFP10–RhoA L63 (constitutively active RhoA mutant fused to GFP β-strand 10) (from UniProt P61586 1-193) (natural protein)” the figure was 5 fold.
